From patent US9307782B2, “Mannanase produced from Cellulosimicrobium sp. strain HY-13” (Korea Research Institute of Bioscience and Biotechnology, priority 2011, dated 2016)
Marks after values point to notes of the source that are not given here.

How the values were obtained:
mannanase = experiment: Effect of metal ions and chemicals on mannanase activity; assay type: biochemical, Cellulosimicrobium sp. HY-13; details: for effect on the enzyme activity / increase of catalytic activity of the mannanase: pH 6.0, 50° C.
[1] = Specific activity of mannanase (DNS reducing sugar assay); assay type: biochemical; details: pH 6.0, 50° C., 15 minutes
Description: To compare the mannanase activity to different matrixes, locust bean gum, ivory nut mannan and guar gum were used as matrixes and the activity of the purified mannanase to those matrixes were investigated.
The activity of β-1,4-mannanase was investigated by measuring the reduced amount of glucose isolated from locust bean gum using 3,5-dinitrosalicylic acid (DNS). At this time, D-mannose was used as a standard material. 0.5 Ml of a standard mixture composed of 0.5% locust bean gum was mixed with 0.05 Ml of an enzyme aqueous solution, followed by inducing biodegradation reaction in 50 mM sodium phosphate buffer (pH 6.0) at 50° C. for 15 minutes. The activity of the recombinated mannanase (1 IU) to the mannan substrate was defined as the amount of the protein necessary for the secretion of 1 μmol reducing sugar under the standard analysis condition. Chromogenic PNP-sugar derivative was used to measure another degrading activity of the said recombinated enzyme. The enzyme activity of the recombinated mannanase to the chromogenic substrate was measured under the same conditions as set for the analysis of β-1,4-mannanase activity. The activity of the recombinated mannanase (1 IU) to the PNP-sugar derivative was defined as the amount of the protein necessary for the production of 1 μmol PNP under the standard analysis condition.

[2] = Analysis of degradation product (HPLC, LC-MS/MS); assay type: biochemical; details: 1 μg recombinant mannanase, pH 6.0, 30° C., 12 hours, LC area %
Description: (§1) Mannooligomer (M2˜M5, 1 mg/100 μl each) and locust bean gum (1.4 mg/100 μl) were reacted in 50 mM sodium phosphate buffer (pH 6.0) containing 1 μg of the recombinant mannanase at 30° C. for 12 hours, followed by investigation of the hydrolysate. HPLC (high performance liquid chromatography) was performed by using Finnigan Surveyor™ Modular HPLC systems (Thermo Electron Co.) equipped with Asahipak NH2P-50 2D column (5 μm, 2.0×150 mm, Shodex) ran by Xcalibur software (version 1.3 SP2, Thermo Electron Co.). Elution buffer A (0.05% pomalus acid/sterilized water) and elution buffer B (acetonitrile and methanol (7:3) containing 0.05% pomalus acid) were used as moving phases. LC-MS/MS (liquid chromatography/tandem mass spectrometry) was performed by using Finnigan LCQ Advantage MAX ion trap mass spectrometer (Thermo Electron Co.).

[3] = Analysis of degradation product (HPLC, LC-MS/MS); assay type: biochemical; details: substrate Ivory nut mannan; LC area %
Description: as §1, with “Mannooligomer (M2˜M5, 1 mg/100 μl each) and locust bean gum (1.4 mg/100 μl) were reacted in 50 mM sodium phosphate buffer (pH 6.0) containing 1 μg of the recombinant mannanase at 30° C. for 12 hours, followed by investigation of the hydrolysate.” left out

[4] = metal ions 1 mM, chemicals 5 mM, 10 minutes
[5] = metal ions 1 mM, 50 mM sodium phosphate buffer (pH 6.0), 50° C., 10 minutes, None = 100.0
[6] = chemicals 5 mM, 50 mM sodium phosphate buffer (pH 6.0), 50° C., 10 minutes, None = 100.0
[7] = detergent 0.5%, 50 mM sodium phosphate buffer (pH 6.0), 50° C., 10 minutes, None = 100.0

Molecule: O=S(=O)([O-])[O-].[Mg+2] [MgSO4]
- effect on the enzyme activity (mannanase; [4]): no effect
- Relative activity (%) (mannanase; [5]): 99.9%

Molecule: O=S(=O)([O-])[O-].[Zn+2] [ZnSO4]
- Relative activity (%) (mannanase; [5]): 47.4%

Molecule: NC(=O)CI [Odoacetamide]
- Relative activity (%) (mannanase; [6]): 113.3%

Molecule: [Ba+2].[Cl-].[Cl-] [BaCl2]
- Relative activity (%) (mannanase; [5]): 118.5%
- increase of catalytic activity of the mannanase (mannanase; metal ions 1 mM, 10 minutes): approximately 1.2 fold

Molecule: [Cl][Hg][Cl] [HgCl2]
- effect on the enzyme activity (mannanase; [4]): inactivated
- Relative activity (%) (mannanase; [5]): 0%

Molecule: CCN1C(=O)C=CC1=O [N-Ethylmaleimide]
- Relative activity (%) (mannanase; [6]): 121.4%

Molecule: [Cl-].[Cl-].[Co+2] [CoCl2]
- Relative activity (%) (mannanase; pH 6): 111.9%

Molecule: O=C1CCC(=O)N1Br [N-Bromosuccinimide]
- Relative activity (%) (mannanase; [6]): 0%
- effect on the enzyme activity (mannanase; [4]): inactivated

Molecule: [Ca+2].[Cl-].[Cl-] [CaCl2]
- Relative activity (%) (mannanase; [5]): 146.9%
- increase of catalytic activity of the mannanase (mannanase; metal ions 1 mM, 10 minutes): at least 1.4 fold

Molecule: [Cl][Cu][Cl] [CuCl2]
- Relative activity (%) (mannanase; [5]): 16.7%

Molecule: Triton X-100
- Relative activity (%) (mannanase; [7]): 98.9%

Molecule: [Cl][Mn][Cl] [MnCl2]
- Relative activity (%) (mannanase; [5]): 125.2%
- increase of catalytic activity of the mannanase (mannanase; metal ions 1 mM, 10 minutes): approximately 1.2 fold

Molecule: CCCCCCCC/C=C\CCCCCCCC(=O)OCCOCC(OCCO)C1OCC(OCCO)C1OCCO (stereo not drawn) [Tween 80]
- Relative activity (%) (mannanase; [7]): 103.5%

Molecule: O=S(=O)([O-])[O-].[Ni+2] [NiSO4]
- Relative activity (%) (mannanase; [5]): 67.1%

Molecule: O=C(O)CN(CCN(CC(=O)O)CC(=O)O)CC(=O)O [EDTA]
- Relative activity (%) (mannanase; pH 6): 19.0%

Molecule: O=S(=O)([O-])[O-].[Fe+2] [FeSO4]
- Relative activity (%) (mannanase; [5]): 42.2%

Molecule: [Cl][Sn][Cl] [SnCl2]
- effect on the enzyme activity (mannanase; [4]): no effect
- Relative activity (%) (mannanase; [5]): 103.7%

B1: rManH: Recombinant GH5 β-1,4-mannanase of Cellulosimicrobium sp. HY-13 produced in E. coli; SEQ. ID. NO: 1; approximately 44 kDa (protein)
chain: MRRLFAIVLGAVLALLAVPALAQGASVASDGFSVQDGRIYDANGNRFVPVGVNHAHAWYPSQTQSFADIRAAGANTVRVVLSGGRYGTSSAADVSAVVERCKQNQLVCILENHDTTGYGEDGSARSLASAAQYWTSIASVLRGQERYVMINIGNEPFGNSGFQSWTTDTIAAIRTLRAAGLDHTLVVDAPNWGQDWSFTMRDNAPTVAAADGNVVFSVHMYGVFDTGAEVRAYLDSFTSRGLPIMVGEFGDNHSDGNPDEATIMSYTRSQGIGMLGWSWSGNGGGVEYLDMVNGFSASSLTPWGQRFVHGADGLRARNAPAASVYGGDGGDGDGGAGTAPNGYPYCASASSDPDGDGWGWESSASCVVRGSSADTGSGGGSGSGSTAPNGYPYCASASSDPDGDGWGWESSASCVVRGSSADR
modifications: cellulosimicrobium
notes: Recombinant GH5 β-1,4-mannanase of Cellulosimicrobium sp; HY-13 produced in E. coli; ID; NO: 1; approximately 44 kDa
- Specific activity ([1]; substrate Guar gum): 967 ± 18 IU mg^−1
- Specific activity ([1]; substrate Insoluble ivory nut mannan): 14,711 ± 183 IU mg^−1
- Specific activity ([1]; substrate Locust bean gum): 8,498 ± 105 IU mg^−1
- Specific activity ([1]; toward insoluble ivory nut mannan): 14,711^c IU/mg
- Specific activity ([1]; toward locust bean gum): 8,498^d IU/mg
- Composition (%) of products formed by hydrolysis reaction: M1 ([2]; substrate Locust bean gum): 1.1%
- Composition (%) of products formed by hydrolysis reaction: M2 ([2]; substrate Locust bean gum): 6.4%
- Composition (%) of products formed by hydrolysis reaction: M3 ([2]; substrate Locust bean gum): 1.5%
- Composition (%) of products formed by hydrolysis reaction: M4 ([2]; substrate Locust bean gum): 7.4%
- Composition (%) of products formed by hydrolysis reaction: M5 ([2]; substrate Locust bean gum): 44.2%
- Composition (%) of products formed by hydrolysis reaction: M6 ([2]; substrate Locust bean gum): 16.1%
- Composition (%) of products formed by hydrolysis reaction: M7 ([2]; substrate Locust bean gum): 21.4%
- Composition (%) of products formed by hydrolysis reaction: M8 ([2]; substrate Locust bean gum): 1.9%
- Composition (%) of products formed by hydrolysis reaction: M2 ([2]; substrate M2): 100.0%
- Composition (%) of products formed by hydrolysis reaction: M1 ([2]; substrate M3): 3.5%
- Composition (%) of products formed by hydrolysis reaction: M2 ([2]; substrate M3): 60.1%
- Composition (%) of products formed by hydrolysis reaction: M3 ([2]; substrate M3): 31.6%
- Composition (%) of products formed by hydrolysis reaction: M4 ([2]; substrate M3): 4.0%
- Composition (%) of products formed by hydrolysis reaction: M5 ([2]; substrate M3): 0.8%
- Composition (%) of products formed by hydrolysis reaction: M1 ([2]; substrate M4): 3.9%
- Composition (%) of products formed by hydrolysis reaction: M2 ([2]; substrate M4): 55.5%
- Composition (%) of products formed by hydrolysis reaction: M3 ([2]; substrate M4): 28.8%
- Composition (%) of products formed by hydrolysis reaction: M4 ([2]; substrate M4): 9.9%
- Composition (%) of products formed by hydrolysis reaction: M5 ([2]; substrate M4): 1.9%
- Composition (%) of products formed by hydrolysis reaction: M1 ([2]; substrate M5): 4.1%
- Composition (%) of products formed by hydrolysis reaction: M2 ([2]; substrate M5): 46.9%
- Composition (%) of products formed by hydrolysis reaction: M3 ([2]; substrate M5): 21.8%
- Composition (%) of products formed by hydrolysis reaction: M4 ([2]; substrate M5): 16.6%
- Composition (%) of products formed by hydrolysis reaction: M5 ([2]; substrate M5): 7.9%
- Composition (%) of products formed by hydrolysis reaction: M6 ([2]; substrate M5): 2.8%
- Composition (%) of products formed by hydrolysis reaction: M7 ([2]; substrate M5): 0.9%
- Composition (%) of products formed by hydrolysis reaction: M1 [3]: 3.3%
- Composition (%) of products formed by hydrolysis reaction: M2 [3]: 17.5%
- Composition (%) of products formed by hydrolysis reaction: M3 [3]: 13.9%
- Composition (%) of products formed by hydrolysis reaction: M4 [3]: 25.2%
- Composition (%) of products formed by hydrolysis reaction: M5 [3]: 19.7%
- Composition (%) of products formed by hydrolysis reaction: M6 [3]: 12.9%
- Composition (%) of products formed by hydrolysis reaction: M7 [3]: 7.5%
- Composition (%) of products formed by hydrolysis reaction: M8 [3]: 2.9%
